Results from patent US20230110188A1 (ARGENX IIP, published 2023).

T1: Human MuSK (R&D Systems, cat. 10189-MK, histidine tag) (human, UniProt O15146 24-495)
T1 construct: Bought protein; also called human monomeric MuSK-6xhis; not shown: histidine tag (6xhis)
T1 sequence: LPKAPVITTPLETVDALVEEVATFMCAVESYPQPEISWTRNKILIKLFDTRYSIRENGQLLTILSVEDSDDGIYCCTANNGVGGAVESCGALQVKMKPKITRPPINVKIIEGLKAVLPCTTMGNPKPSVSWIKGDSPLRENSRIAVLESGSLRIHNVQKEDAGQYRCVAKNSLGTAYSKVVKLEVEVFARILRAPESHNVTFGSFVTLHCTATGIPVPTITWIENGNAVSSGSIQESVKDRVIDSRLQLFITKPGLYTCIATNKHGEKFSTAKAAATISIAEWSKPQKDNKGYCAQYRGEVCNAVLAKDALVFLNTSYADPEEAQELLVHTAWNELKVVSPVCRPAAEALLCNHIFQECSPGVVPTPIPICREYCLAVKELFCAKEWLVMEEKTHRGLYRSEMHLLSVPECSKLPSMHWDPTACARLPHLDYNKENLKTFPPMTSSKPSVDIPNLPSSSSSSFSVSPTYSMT

T2: Mouse MuSK as it stands on mouse muscle (neuromuscular junctions, C2C12 myotubes) (mouse, UniProt Q61006 22-868)
T2 sequence (looked up): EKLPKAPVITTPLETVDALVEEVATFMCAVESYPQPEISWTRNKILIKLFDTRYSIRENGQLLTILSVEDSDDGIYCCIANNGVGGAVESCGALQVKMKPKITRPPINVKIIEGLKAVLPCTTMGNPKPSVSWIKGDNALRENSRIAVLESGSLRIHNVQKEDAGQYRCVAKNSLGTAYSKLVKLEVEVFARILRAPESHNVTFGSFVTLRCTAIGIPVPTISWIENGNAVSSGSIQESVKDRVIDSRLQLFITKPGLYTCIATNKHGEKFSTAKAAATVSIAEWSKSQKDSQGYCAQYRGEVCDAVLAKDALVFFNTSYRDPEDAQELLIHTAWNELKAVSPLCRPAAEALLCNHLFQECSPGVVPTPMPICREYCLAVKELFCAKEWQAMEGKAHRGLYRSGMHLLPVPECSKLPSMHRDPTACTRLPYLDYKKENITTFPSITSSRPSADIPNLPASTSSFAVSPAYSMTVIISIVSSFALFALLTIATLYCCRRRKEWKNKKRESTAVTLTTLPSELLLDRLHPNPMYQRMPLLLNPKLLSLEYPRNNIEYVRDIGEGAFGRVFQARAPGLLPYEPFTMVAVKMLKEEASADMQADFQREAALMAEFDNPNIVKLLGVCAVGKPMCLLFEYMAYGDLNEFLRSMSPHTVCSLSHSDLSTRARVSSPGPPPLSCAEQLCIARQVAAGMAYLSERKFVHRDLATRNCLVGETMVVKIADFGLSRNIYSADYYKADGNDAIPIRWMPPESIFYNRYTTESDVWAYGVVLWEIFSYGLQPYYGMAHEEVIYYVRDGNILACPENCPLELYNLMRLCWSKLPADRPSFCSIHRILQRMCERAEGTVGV


How the values were obtained:
[1] = biological target: T1, Human MuSK (R&D Systems, cat. 10189-MK, …); test: SPR (Biacore), MuSK-coated chip, antibody alone (run of first antibody 3F6c)
Method: A chip was coated with ˜5000 RU of human MuSK (Lot nr DHUCO 11908A, batch nr 1089_MK). In a first experiment the saturating concentration of the pre-leads was determined. This is the concentration where the amplitude of a specific pre-lead doesn't increase anymore when additional pre-lead is injected on the immobilized MuSK.

[2] = biological target: T1, Human MuSK (R&D Systems, cat. 10189-MK, …); test: SPR (Biacore), antibody captured on anti-hFc chip; 10 nM; dissociation pH 7.4
Text: (§1) In order to study pH dependent binding of our antibodies to MuSK, the Biacore was used with the same setup as described in the paragraph entitled “Binding affinity for mouse, human and rhesus monkey recombinant MuSK in Biacore”. 6. […] For the other antibodies there is no real difference observed between pH 7.4 and 5.5.

[3] = biological target: T1, Human MuSK (R&D Systems, cat. 10189-MK, …); test: SPR (Biacore), pH 5.5 (summary table, repeats the average of Table 17)
Text: as §1

[4] = biological target: T2, Mouse MuSK as it stands on mouse muscle …; test: cell-based or functional assay
[5] = biological target: T1, Human MuSK (R&D Systems, cat. 10189-MK, …); test: SPR (Biacore), antibody captured on anti-hFc chip; 0.3125 nM; dissociation pH 7.4
Text: as §1

[6] = biological target: T2, Mouse MuSK as it stands on mouse muscle …; test: cell-based or functional assay; remark: listed apart in the source
[7] = biological target: T1, Human MuSK (R&D Systems, cat. 10189-MK, …); test: SPR (Biacore), antibody captured on anti-hFc chip; 5 nM; dissociation pH 7.4
Text: as §1

[8] = biological target: T1, Human MuSK (R&D Systems, cat. 10189-MK, …); test: SPR (Biacore), antibody captured on anti-hFc chip; 1.25 nM; dissociation pH 5.5
Text: as §1

[9] = biological target: T2, Mouse MuSK as it stands on mouse muscle …; test: cell-based or functional assay; remark: listed apart in the source

| amplitude of prelead without presaturating MuSK (RU) [1] [RU] | koff [2] [s⁻¹] | koff [3] [s⁻¹] | AChR clusters larger or equal to 15 µm (large clusters) compared to agrin; Exp 1, batch Argenx [4] | AChR clusters larger or equal to 15 µm (large clusters) compared to agrin; Exp 2, batch Argenx [4] | AChR clusters larger or equal to 15 µm (large clusters) compared to agrin; Exp 3, batch UPX [4] | koff [5] [s⁻¹] | AChR clusters larger or equal to 3 µm compared to agrin; Exp 1, batch Argenx [6] | AChR clusters larger or equal to 3 µm compared to agrin; Exp 2, batch Argenx [6] | AChR clusters larger or equal to 3 µm compared to agrin; Exp 3, batch UPX [6] | koff [7] [s⁻¹] | koff [8] [s⁻¹] | AChR clusters larger or equal to 15 µm (large clusters) compared to agrin; antibody 0.11 µg/ml [9] | AChR clusters larger or equal to 15 µm (large clusters) compared to agrin; antibody 1.1 µg/ml [9] | AChR clusters larger or equal to 15 µm (large clusters) compared to agrin; antibody 11 µg/ml [9] | AChR clusters larger or equal to 15 µm (large clusters) compared to agrin; antibody 110 µg/ml [9] | Binder |
| --- | --- | --- | --- | --- | --- | --- | --- | --- | --- | --- | --- | --- | --- | --- | --- | --- |
| 2370 | 0.00014 | 9e-05 | 52 % of agrin | 73 % of agrin | 61 % of agrin | 0.00018 | 64 % of agrin | 99 % of agrin | 71 % of agrin | 0.00015 | 7e-05 | 62 % of agrin | 64 % of agrin | 61 % of agrin | 58 % of agrin | 3D10a (antibody, human IgG1, kappa, L234A L235A, V domains shown) VH: EVQLVESGGGLVKPGGSLRLSCAASGFTFSASTMAWVRQAPGKGLEWVSSVSGDSHHIYYADSLKGRFTISRDNAKNSLYLQMNSLRAEDTAVYYCARERLLRLGVGFDSWGQGTLVTVSS VL: DIQMTQSPSSLSASVGDRVTITCRASQRISGFVNWYQQKPGKAPKLLIYAASTLQSGVPSRFSGSGSGTDFTLTISSLQPEDFATYYCQQSYSPLYTFGQGTKLEIKR |
| 2390 | 0.00013 | 0.00016 | 84 % of agrin | 58 % of agrin | 59 % of agrin | 0.00013 | 102 % of agrin | 73 % of agrin | 72 % of agrin | 0.00014 | 0.00016 | 44 % of agrin | 58 % of agrin | 61 % of agrin | 58 % of agrin | 4D3 (antibody, human IgG1, kappa, L234A L235A, V domains shown) VH: EVQLVESGGGLVKPGGSLRLSCAASGFTFSSYTMTWVRQAPGKGLEWVSSISSGGHYIYYTDSLKGRFTISRDNAKNSLYLQMNSLRAEDTAVYYCARERLLRLGVGFDFWGQGTLVTVSS VL: DIQMTQSPSSLSASVGDRVTITCRASQSISGYLNWYQQKPGKAPKLLIYAASTLQSGVPSRFSGSGSGTDFTLTISSLQPEDFATYYCQQSYSALYTFGQGTKLEIKR |
| 3640 | 6e-05 | 0.0002 | 56 % of agrin | 70 % of agrin | 57 % of agrin | 0.00015 | 71 % of agrin | 105 % of agrin | 69 % of agrin | 7e-05 | 0.00018 | 60 % of agrin | 46 % of agrin | 51 % of agrin | 50 % of agrin | 3F6c (antibody, human IgG1, kappa, L234A L235A, V domains shown) VH: EVQLVESGGGLVKPGGSLRLSCAASGFTFSSYTMDWVRQAPGKGLEWVSSIGSNGDYIYYADSVRGRFTISRDNAKNSLYLQMNSLRAEDTAVYYCARGQLAVAGTHFDYWGQGTLVTVSS VL: DIQMTQSPSSLSASVGDRVTITCRASQKVNKYVNWYQQKPGKAPKLLIYAASTLQSGVPSRFSGSGSGTDFTLTISSLQPEDFATYYCQQSYSPLSTFGQGTKLEIKR |
| 1660 | 8e-05 | 4e-05 | 80 % of agrin | 74 % of agrin | 70 % of agrin | 0.00018 | 89 % of agrin | 95 % of agrin | 91 % of agrin | 8e-05 | 3e-05 | 49 % of agrin | 84 % of agrin | 79 % of agrin | 66 % of agrin | 3D9b (antibody, human IgG1, kappa, L234A L235A, V domains shown) VH: EVQLVESGGGLVKPGGSLRLSCAASGFTFSTYTMHWVRQAPGKGLEWVSSISSRSAYKYYADSVKGRFTISRDNAKNSLYLQMNSLRAEDTAVYYCARDFFQLGPPRFDSWGQGTLVTVSS VL: DIQMTQSPSSLSASVGDRVTITCRASQRISSFLNWYQQKPGKAPKLLIYGASNLQSGVPSRFSGSGSGTDFTLTISSLQPEDFATYYCQQSYSPSYTFGQGTKLEIKR |
